Target: the molecule itself
Experiment: SEC; Superose 6 Increase 10/300 GL; single ENC particles eluted at 11-12 mL, highly aggregated particles at 8-9 mL

B1: encapsulin (ENC) from Thermotoga maritima (natural protein, UniProt Q9WZP2 1-264, looked up)
chain: MEFLKRSFAPLTEKQWQEIDNRAREIFKTQLYGRKFVDVEGPYGWEYAAHPLGEVEVLSDENEVVKWGLRKSLPLIELRATFTLDLWELDNLERGKPNVDLSSLEETVRKVAEFEDEVIFRGCEKSGVKGLLSFEERKIECGSTPKDLLEAIVRALSIFSKDGIEGPYTLVINTDRWINFLKEEAGHYPLEKRVEECLRGGKIITTPRIEDALVVSERGGDFKLILGQDLSIGYEDREKDAVRLFITETFTFQVVNPEALILLK
notes: also called ENC NPs; ENC PNPs; copies: 60
B1: binds.
